EP4775595A1 (Beijing Tuo Jie Biopharmaceutical Co. Ltd., dated 2026)
Read-outs that look alike come from different tables or passages of the source.

B1: IG06-hu4 (VHH)
VHH: EVQLVESGGGLVQPGGSLRLSCAASRYIVSTRCLGWVRQAPGKEREEVSTIDTAGRPTYADSVKGRFTISRDGAKNFLYLQMNSLRAEDTAVYYCAAASSDNCRYFPSNLGQGTLVTVSS
B2: IG06-hu6 (VHH)
VHH: EVQLVESGGGLVQPGGSLRLSCAASRYIVSTRCLGWVRQAPGNEREEVSTIDTAGRPTYADSVKGRFTISRDNSKNTLYLQMNSLRAEDTAVYYCAAASSDNCRYFPSNLGQGTLVTVSS
B3: IG06-hu3 (VHH)
VHH: EVQLVESGGGLVQPGGSLRLSCAASRYIVSTRCLGWVRQAPGKEREEVSTIDTAGRPTYADSVKGRFTISRDGAKNFLYLQMNSLRAEDTAVYYCAAASSDNCRYFPSNWGQGTLVTVSS
B4: IG06-hu5 (VHH)
VHH: EVQLVESGGGLVQPGGSLRLSCAASRYIVSTRCLGWVRQAPGKEREEIATIDTAGRPTYADSVKGRFTISRDGAKNFLYLQMNSLRAEDTAVYYCAAASSDNCRYFPSNLGQGTLVTVSS
B5: IG06-hu1 (VHH)
VHH: EVQLVESGGGLVQPGGSLRLSCAASRYIVSTRCLGWVRQAPGKEREEVSTIDTAGRPTYADSVKGRFTISRDNSKNTLYLQMNSLRAEDTAVYYCAAASSDNCRYFPSNWGQGTLVTVSS
B6: IG06-hu2 (VHH)
VHH: EVQLVESGGGLVQPGGSLRLSCAASRYIVSTRCLGWVRQAPGKEREEVSTIDTAGRPTYADSVKGRFTISRDNSKNFLYLQMNSLRAEDTAVYYCAAASSDNCRYFPSNWGQGTLVTVSS
B7: IG06 (VHH)
VHH: QVQLVESGGGSVQAGGSLRLSCAASRYIVSTRCLGWVRQAPGNEREEIATIDTAGRPTYADSVKGRFTISKDGAKNFLYLQMNSLKPEDTAMYYCAAASSDNCRYFPSNLGQGTQVTVSS
notes: Camel single-domain antibody against IGF-1R
B8: PHP1003 (Suzhou PRO-HEAL, CN113512116) (antibody, V domains shown)
VH: QVQLQESGPGLVKPSGTLSLTCAVSGGSISSSNWWSWVRQPPGKGLEWIGEIYHSGSTNYNPSLKSRVTISVDKSKNQFSLKLSSVTAADTAVYYCARWTGRTDAFDIWGQGTMVTVSS
VL: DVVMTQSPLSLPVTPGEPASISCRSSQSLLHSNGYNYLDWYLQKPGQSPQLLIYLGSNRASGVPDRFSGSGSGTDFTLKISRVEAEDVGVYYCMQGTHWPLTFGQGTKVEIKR
notes: Positive control anti-IGF-1R antibody
B9: IG05-hu1 (VHH)
VHH: EVQLVESGGGLVQPGGSLRLSCTASGLTFGTFGMAWFRQAPGKEREGVSAISASSGRTYYADSVKGRFTISRDNSKNTLYLQMNSLRAEDTAVYYCAVRSKNGAGYGFWYEARLYGYWGQGTLVTVSS
notes: Humanized IG05; also called IG05-hul
B10: IG05-hu5 (VHH)
VHH: EVQLVESGGGLVQPGGSLRLSCAASGFTFGTFGMAWFRQAPGKEREGVSAISASSGRTYYADSVKGRFTISRDNSKNTLYLQMNSLRAEDTAVYYCAVRSKNGAGYGFWYEARLYGYWGQGTLVTVSS
notes: Humanized IG05
B11: IG05-hu3 (VHH)
VHH: EVQLVESGGGLVQPGGSLRLSCTASGLTFGTFGMAWFRQAPGKEREGVSAISASSGRTYYADSVKGRFTISRDNSKNTLYLQMDALRAEDTAVYYCAVRSKNGAGYGFWYEARLYGYWGQGTLVTVSS
notes: Humanized IG05
B12: IG05-hu2 (VHH)
VHH: EVQLVESGGGLVQPGGSLRLSCTASGLTFGTFGMAWFRQAPGKEREGVSAISASSGRTYYADSVKGRFTISRDNAKNTLYLQMNSLRAEDTAVYYCAVRSKNGAGYGFWYEARLYGYWGQGTLVTVSS
notes: Humanized IG05
B13: IG05 (VHH)
VHH: QVQLVESGGGLVQAGGSLRLSCTASGLTFGTFGMAWFRQAPGKEREGVSAISASSGRTYYADSVKGRFTISRDNAKNTLYLQMDALKPEDTAMYYCAVRSKNGAGYGFWYEARLYGYWGQGTQVTVSS
notes: as for B7
B14: IG05-hu4 (VHH)
VHH: EVQLVESGGGLVQPGGSLRLSCAASGLTFGTFGMAWFRQAPGKEREGVSAISASSGRTYYADSVKGRFTISRDNSKNTLYLQMNSLRAEDTAVYYCAVRSKNGAGYGFWYEARLYGYWGQGTLVTVSS
notes: Humanized IG05

Tests used:
[1] = target: T1, hIGF-1R-ECD-avi-his (human IGF-1R extracellular region) (human, UniProt P08069 31-935); assay: SPR (Biacore T200), antigen captured by anti-His antibody on CM5 chip, antibody as analyte
T1 construct: It was captured on the chip through its His tag
T1 sequence (P08069 other isoform, or with tags, fused parts or gaps limits assumed): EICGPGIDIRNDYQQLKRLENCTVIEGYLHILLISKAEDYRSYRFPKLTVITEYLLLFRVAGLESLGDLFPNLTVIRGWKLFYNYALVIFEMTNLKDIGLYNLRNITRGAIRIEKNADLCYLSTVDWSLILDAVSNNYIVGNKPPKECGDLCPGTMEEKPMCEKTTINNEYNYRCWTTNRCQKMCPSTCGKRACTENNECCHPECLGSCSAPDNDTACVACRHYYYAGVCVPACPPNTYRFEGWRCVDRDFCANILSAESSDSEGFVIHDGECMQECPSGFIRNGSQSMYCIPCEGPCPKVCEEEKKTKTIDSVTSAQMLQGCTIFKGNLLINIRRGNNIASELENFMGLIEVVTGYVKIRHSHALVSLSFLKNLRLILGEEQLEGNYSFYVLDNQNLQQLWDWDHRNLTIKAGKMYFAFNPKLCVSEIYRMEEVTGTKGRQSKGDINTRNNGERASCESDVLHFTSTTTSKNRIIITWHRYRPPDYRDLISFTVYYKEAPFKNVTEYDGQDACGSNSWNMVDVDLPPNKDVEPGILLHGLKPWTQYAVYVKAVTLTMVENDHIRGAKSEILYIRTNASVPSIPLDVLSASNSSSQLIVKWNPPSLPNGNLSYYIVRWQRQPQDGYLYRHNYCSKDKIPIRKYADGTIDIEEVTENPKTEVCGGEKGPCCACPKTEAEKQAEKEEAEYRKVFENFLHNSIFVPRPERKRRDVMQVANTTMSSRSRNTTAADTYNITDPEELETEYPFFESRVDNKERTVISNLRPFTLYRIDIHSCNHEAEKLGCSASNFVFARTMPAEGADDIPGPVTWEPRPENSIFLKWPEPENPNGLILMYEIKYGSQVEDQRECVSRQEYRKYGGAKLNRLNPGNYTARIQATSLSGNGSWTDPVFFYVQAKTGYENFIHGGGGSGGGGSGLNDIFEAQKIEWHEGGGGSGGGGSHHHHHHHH

[2] = target: human IGF-1R on human non-small cell lung cancer cells (A549) (human, UniProt P08069 31-1367); assay: cell-based or functional assay
human IGF-1R on human non-small cell lung cancer cells (A549), sequence (P08069 31-1367): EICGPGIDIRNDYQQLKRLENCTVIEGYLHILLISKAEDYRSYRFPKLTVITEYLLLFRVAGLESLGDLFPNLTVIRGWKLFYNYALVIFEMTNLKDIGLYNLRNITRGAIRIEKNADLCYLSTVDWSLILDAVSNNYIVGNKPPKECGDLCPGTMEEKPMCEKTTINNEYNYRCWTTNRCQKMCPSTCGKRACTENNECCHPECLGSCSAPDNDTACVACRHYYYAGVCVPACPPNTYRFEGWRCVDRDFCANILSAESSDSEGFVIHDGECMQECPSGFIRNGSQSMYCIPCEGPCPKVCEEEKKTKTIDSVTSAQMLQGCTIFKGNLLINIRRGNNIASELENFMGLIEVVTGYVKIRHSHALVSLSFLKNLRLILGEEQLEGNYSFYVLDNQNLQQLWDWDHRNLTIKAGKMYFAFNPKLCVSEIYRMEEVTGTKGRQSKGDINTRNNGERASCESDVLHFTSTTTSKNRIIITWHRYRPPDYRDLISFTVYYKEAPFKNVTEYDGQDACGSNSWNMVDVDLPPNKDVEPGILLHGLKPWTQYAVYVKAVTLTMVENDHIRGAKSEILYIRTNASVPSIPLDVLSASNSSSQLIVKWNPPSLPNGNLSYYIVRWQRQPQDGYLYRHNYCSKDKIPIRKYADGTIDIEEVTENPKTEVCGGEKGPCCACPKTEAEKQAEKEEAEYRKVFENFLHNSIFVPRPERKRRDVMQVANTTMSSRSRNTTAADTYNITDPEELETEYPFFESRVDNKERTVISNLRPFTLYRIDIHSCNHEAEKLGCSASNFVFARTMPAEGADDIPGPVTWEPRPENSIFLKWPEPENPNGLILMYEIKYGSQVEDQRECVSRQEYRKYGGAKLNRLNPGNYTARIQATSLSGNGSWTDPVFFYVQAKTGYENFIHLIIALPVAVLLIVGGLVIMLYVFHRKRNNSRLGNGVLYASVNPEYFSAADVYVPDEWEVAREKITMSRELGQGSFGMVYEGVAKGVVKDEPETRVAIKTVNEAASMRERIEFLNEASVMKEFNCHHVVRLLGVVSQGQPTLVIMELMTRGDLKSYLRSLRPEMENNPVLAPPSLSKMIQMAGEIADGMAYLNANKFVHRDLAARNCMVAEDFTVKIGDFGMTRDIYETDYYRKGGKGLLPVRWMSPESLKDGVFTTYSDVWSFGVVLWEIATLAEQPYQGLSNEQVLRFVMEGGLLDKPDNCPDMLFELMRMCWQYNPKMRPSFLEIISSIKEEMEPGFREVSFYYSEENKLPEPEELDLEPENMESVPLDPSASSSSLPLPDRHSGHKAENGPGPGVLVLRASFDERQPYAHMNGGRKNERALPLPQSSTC

[3] = target: T2, mouse IGF-1R (Acro, Cat. IGR-M5223) (mouse, UniProt Q60751 31-936, limits assumed); assay: SPR (Biacore T200), antigen captured by anti-His antibody on CM5 chip, antibody as analyte
T2 construct: Bought reagent; also called murine IGF-1R
T2 sequence (Q60751 31-936 limits assumed): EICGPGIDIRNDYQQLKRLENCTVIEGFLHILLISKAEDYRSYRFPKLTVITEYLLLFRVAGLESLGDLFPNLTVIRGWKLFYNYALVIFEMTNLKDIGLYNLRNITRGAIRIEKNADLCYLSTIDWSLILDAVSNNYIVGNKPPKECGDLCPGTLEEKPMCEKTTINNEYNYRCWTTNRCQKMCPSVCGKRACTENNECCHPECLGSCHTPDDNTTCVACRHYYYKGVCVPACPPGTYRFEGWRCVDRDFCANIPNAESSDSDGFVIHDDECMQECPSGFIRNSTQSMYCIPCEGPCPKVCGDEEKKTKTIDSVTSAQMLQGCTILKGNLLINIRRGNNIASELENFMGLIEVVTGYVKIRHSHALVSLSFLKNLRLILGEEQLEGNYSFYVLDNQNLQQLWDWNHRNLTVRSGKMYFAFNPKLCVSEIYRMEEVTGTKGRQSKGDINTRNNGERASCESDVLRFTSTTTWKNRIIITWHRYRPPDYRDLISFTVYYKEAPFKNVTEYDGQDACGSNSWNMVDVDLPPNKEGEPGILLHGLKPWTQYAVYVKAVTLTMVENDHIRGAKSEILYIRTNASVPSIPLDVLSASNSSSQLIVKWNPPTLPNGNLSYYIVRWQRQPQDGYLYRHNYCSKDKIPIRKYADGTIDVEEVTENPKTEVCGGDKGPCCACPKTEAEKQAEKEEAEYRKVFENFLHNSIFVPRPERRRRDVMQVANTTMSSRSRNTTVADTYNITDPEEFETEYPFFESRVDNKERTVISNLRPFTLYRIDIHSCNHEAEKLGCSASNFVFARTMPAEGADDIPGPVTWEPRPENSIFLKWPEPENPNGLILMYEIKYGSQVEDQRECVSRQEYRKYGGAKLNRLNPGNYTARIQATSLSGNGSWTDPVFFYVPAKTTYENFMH

[4] = target: T1, hIGF-1R-ECD-avi-his (human IGF-1R …); assay: as above; remark: listed apart in the source
[5] = target: mouse IGF-1R on mouse myoblasts (C2C12) (mouse, UniProt Q60751 31-1373); assay: cell-based or functional assay
mouse IGF-1R on mouse myoblasts (C2C12), sequence (Q60751 31-1373): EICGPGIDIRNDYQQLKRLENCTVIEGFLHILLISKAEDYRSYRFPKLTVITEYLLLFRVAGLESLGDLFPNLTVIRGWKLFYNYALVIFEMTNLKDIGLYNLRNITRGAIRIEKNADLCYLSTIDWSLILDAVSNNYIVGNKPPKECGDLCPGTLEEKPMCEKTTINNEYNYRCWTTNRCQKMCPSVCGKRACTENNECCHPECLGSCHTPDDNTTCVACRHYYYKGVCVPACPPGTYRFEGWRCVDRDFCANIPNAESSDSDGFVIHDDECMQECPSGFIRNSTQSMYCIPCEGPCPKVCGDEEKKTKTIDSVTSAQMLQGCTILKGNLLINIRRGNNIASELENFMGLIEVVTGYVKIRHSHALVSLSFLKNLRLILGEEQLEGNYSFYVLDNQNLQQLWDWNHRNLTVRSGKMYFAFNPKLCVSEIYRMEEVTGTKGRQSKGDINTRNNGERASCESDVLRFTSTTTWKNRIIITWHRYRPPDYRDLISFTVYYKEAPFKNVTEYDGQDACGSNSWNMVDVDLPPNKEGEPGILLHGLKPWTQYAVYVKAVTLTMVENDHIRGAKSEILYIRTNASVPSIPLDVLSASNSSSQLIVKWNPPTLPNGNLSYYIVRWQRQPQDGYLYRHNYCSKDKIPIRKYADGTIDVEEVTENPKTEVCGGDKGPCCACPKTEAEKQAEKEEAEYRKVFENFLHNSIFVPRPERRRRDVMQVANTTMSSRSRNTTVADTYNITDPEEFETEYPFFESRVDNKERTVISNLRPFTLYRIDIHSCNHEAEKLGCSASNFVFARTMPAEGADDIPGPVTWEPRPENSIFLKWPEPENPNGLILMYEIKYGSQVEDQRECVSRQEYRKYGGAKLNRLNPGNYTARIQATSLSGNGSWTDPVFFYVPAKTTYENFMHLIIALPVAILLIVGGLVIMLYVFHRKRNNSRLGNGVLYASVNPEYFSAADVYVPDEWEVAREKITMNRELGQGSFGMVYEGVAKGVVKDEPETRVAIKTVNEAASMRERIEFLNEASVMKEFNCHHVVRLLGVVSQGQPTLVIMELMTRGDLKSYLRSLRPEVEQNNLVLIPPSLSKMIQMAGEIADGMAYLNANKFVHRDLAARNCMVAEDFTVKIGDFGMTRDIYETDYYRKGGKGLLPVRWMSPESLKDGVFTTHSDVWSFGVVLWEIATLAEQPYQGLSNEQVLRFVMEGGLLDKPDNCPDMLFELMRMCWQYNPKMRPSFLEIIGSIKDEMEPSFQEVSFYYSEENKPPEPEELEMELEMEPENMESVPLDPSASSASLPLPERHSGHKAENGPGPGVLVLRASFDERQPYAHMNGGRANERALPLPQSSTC

Binder | Kd [1] [nM] | koff [1] [s⁻¹] | kon [1] [M⁻¹ s⁻¹] | also measured
B1 | 4 | 0.00299 | 748000 | –
B2 | 1.55 | 0.00226 | 1.46e+06 | –
B3 | 27.3 | 0.0231 | 847000 | –
B4 | 2.67 | 0.0024 | 899000 | –
B5 | 29.3 | 0.0265 | 905000 | –
B6 | 34.7 | 0.0277 | 800000 | –
B7 | 0.889 | 0.000675 | 759000 | –
B8 | – | – | – | IC50 (nM), inhibition of IGF1-induced pAKT signaling in A549 cells [2]: 33.6 nM; Kd [3]: 0.337 nM; koff [3]: 0.00112 s⁻¹; kon [3]: 3.32e+06 M⁻¹ s⁻¹; Kd [4]: 0.262 nM; koff [4]: 0.00107 s⁻¹; kon [4]: 4.1e+06 M⁻¹ s⁻¹; IC50 (nM), inhibition of IGF1-induced pAKT signaling in C2C12 cells [5]: 4240 nM
B9 | 0.395 | 0.00072 | 1.82e+06 | –
B10 | 0.258 | 0.000474 | 1.83e+06 | –
B11 | 0.403 | 0.000723 | 1.79e+06 | –
B12 | 0.361 | 0.000772 | 2.14e+06 | –
B13 | 0.346 | 0.000749 | 2.17e+06 | –
B14 | 0.507 | 0.000882 | 1.74e+06 | –
